Data published in patent US20230138315A1 (JIANGSU HENGRUI MEDICINE, published 2023).

T1: rat ANGPTL3(17-455)-His (rat, biotin-labelled in the ELISA and HTRF assays (sites not given))
T1 construct: also called full-length rat ANGPTL3
T1 chain: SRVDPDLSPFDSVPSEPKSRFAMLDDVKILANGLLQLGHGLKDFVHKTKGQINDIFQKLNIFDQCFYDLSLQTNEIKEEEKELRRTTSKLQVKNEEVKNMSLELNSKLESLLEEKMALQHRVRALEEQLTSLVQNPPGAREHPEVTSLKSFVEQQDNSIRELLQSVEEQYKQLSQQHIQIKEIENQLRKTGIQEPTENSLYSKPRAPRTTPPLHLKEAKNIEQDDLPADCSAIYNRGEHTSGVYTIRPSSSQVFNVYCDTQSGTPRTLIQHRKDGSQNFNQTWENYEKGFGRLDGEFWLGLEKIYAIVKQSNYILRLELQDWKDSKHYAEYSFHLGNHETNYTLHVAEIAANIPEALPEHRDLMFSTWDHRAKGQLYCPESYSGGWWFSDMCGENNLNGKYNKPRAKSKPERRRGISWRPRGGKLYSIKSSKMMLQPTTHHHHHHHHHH

T2: human-ANGPTL3(17-460)-His (human, UniProt Q9Y5C1 17-460, biotin-labelled (labelling kit, sites not stated))
T2 construct: also called full-length human ANGPTL3
T2 sequence: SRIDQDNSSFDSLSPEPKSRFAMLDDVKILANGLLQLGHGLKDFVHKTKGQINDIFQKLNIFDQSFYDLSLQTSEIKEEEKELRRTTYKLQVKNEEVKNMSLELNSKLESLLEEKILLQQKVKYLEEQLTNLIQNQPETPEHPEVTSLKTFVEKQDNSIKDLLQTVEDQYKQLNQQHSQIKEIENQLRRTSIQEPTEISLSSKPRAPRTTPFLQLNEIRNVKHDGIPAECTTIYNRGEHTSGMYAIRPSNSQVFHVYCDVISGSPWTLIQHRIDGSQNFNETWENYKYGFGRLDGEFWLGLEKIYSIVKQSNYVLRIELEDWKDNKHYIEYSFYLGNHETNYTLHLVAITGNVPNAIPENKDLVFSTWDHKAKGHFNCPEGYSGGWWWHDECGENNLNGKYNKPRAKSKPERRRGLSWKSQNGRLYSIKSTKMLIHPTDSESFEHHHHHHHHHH

T3: mouse ANGPTL3(17-455)-His (mouse, UniProt Q9R182 17-455, biotin-labelled in the ELISA and HTRF assays (sites not given))
T3 construct: also called full-length mouse ANGPTL3
T3 sequence: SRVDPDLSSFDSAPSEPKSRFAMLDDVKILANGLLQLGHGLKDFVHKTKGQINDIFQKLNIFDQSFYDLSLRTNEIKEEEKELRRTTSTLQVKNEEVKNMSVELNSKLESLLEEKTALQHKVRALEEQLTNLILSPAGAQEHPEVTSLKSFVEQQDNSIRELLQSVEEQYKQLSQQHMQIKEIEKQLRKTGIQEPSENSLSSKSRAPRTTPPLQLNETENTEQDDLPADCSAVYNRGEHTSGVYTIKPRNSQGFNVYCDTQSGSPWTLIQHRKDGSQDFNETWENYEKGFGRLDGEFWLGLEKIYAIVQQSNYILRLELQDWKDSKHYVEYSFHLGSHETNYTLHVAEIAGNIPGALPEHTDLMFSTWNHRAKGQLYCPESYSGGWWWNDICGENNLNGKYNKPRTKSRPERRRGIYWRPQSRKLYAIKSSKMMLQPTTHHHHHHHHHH

T4: cynomolgus monkey ANGPTL3(17-460)-His (cynomolgus monkey, UniProt Q9Y5C1 17-460 (human entry), biotin-labelled in the ELISA and HTRF assays (sites not given))
T4 construct: also called full-length cynomolgus monkey ANGPTL3; Cyno ANGPTL3
T4 chain: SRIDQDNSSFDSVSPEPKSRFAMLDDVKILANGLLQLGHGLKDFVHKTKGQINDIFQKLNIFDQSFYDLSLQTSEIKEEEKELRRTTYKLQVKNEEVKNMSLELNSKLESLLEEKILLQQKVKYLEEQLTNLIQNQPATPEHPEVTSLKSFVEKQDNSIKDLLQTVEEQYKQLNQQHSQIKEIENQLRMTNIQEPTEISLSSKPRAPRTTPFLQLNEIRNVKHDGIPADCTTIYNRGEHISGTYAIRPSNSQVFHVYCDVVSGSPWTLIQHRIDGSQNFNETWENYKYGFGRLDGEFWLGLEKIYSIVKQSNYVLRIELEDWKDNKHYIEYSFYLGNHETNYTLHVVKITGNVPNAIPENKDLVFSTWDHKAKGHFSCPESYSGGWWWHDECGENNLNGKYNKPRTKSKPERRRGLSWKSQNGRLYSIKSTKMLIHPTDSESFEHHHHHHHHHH


How the values were obtained:
Assay in all cases: HTRF; biotin-labelled antigen with Streptavidin-Tb cryptate
[1] = target: T1, rat ANGPTL3(17-455)-His
[2] = target: T2, human-ANGPTL3(17-460)-His
[3] = target: T3, mouse ANGPTL3(17-455)-His
[4] = target: T4, cynomolgus monkey ANGPTL3(17-460)-His

| Binder | EC50 [1] | EC50 [2] | EC50 [3] | EC50 [4] |
| --- | --- | --- | --- | --- |
| P3G (antibody, human IgG4 S228P, kappa, V domains shown, also called anti-ANGPTL3 antibody P3G; P3 (variable regions)) VH: QVQLVQSGAEVKKPGASVKVSCKSSGYTFTDYYLHWLRQAPGQGPEWMGWISPNSGGTSYAQKFQGRVTMTRDTSISTAYMELSSLRSDDTAVYYCARDIATLGNFFTYGMDVWGQGTTVTVSS VL: DIQLTQSPSSLSASVGDRVTITCRASQGIRNDLGWYQQKPGKAPKLLIYAASSLQSGVPSRFSGSGSGTDFTLTISSLQPEDFATYYCQQSYSSWTFGQGTKVEIKR | 0.597 nM | 0.929 nM | 0.638 nM | 0.502 nM |
| P8G (antibody, human IgG4 S228P, kappa, V domains shown, also called anti-ANGPTL3 antibody P8G; P8 (variable regions)) VH: QVQLVQSGAEVKKPGASVKVSCKASGYTFTSYDINWVRQAPGQGLEWVGLINPRDDSTSYAQKFQGRVTMTRDTSTSTMYMELSSLRSEDTAVYFCARDLGSIREVLYYGMDVWGQGTTVTVSS VL: not shown | 0.484 nM | 0.784 nM | 0.45 nM | 0.303 nM |
